We go through two substances from patent publication US20170037117A1, “COMPOSITIONS AND METHODS FOR TREATING METABOLIC DISORDERS” (Salk Institute for Biological Studies, priority 2014, published 2017).

In assay [1] the target is human α-CGRP K35A (19-37) (human). In words: Biacore SPR 25 C, Fab over peptide on SA chip; ratio to parent 19-37.
For assay [2], the target named is human α-CGRP fragment 25-37 (human). Nature of the assay: Biacore, 25 C, Fab over biotin-fragment on SA chip.
Assay [3] addresses human α-CGRP 1-37 (WT) (human). Nature of the assay: Biacore, 25 C, Fab over biotin-CGRP on SA chip.
Assay [4] deals with human α-CGRP 1-37 (WT) (human). In words: Biacore, 37 C, Fab over biotin-CGRP on SA chip.
Sequence of human α-CGRP 1-37 (WT) (human) (peptide, as listed by the source): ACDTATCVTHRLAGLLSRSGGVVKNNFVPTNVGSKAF
Assay [5] has as its target rat α-CGRP (1-37) (rat). Nature of the assay: Biacore, 37 C, Fab over biotin-CGRP on SA chip.
Assay [6] has as its target human α-CGRP 1-37 (WT) (human). In words: Biacore SPR 25 C, Fab over N-biotinylated peptide on SA chip.
Assay [7] deals with human α-CGRP fragment 19-37 (human). Nature of the assay: Biacore SPR 25 C, Fab over N-biotinylated peptide on SA chip; mean ± SD of two measurements on different chips.
The target of assay [8] is human α-CGRP fragment 25-37 (human). Described as above.
Assay [9] concerns the target human α-CGRP S34A (25-37) (human). In words: Biacore SPR 25 C, Fab over peptide on SA chip; ratio to parent 25-37.
Assay [10] concerns the target human α-CGRP N31A (25-37) (human). The assay is described as above.
The target in assay [11] is human α-CGRP G33A (25-37) (human). The description is as above.
The target of assay [12] is human α-CGRP P29A (25-37) (human). The description is as above.
The target in assay [13] is human α-CGRP V28A (25-37) (human). Described as above.
In assay [14] the target is human α-CGRP V32A (25-37) (human). The description is as above.
Assay [15] concerns the target human α-CGRP T30A (25-37) (human). The description is as above.
For assay [16], the target named is human α-CGRP F27A (25-37) (human). Described as above.

Sequence of rat α-CGRP (1-37) (rat) (peptide, as listed by the source): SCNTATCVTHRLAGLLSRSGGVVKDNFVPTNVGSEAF

Regarding “anti-CGRP monoclonal antibody 4901, Fab fragment”, the KD (mutant/parent) was found to be 0.3 in assay [1]; 0.8 in assay [9]; 0.3 in assay [10]; 1.3 in assay [11]; 0.2 in assay [12]; 0.8 in [13]. For the same substance, the KD (mutant/parent) amounted to 0.9 in assay [14], 0.2 in assay [15] and 0.8 in assay [16]. In addition, in [2], the fold lower affinity than to full length human α-CGRP turned out to be 6 fold. The Kd in assay [3] is 61 nM; in [4], 139 nM; in assay [5], 3.4 nM; in [6], 60.5 nM; in assay [7] it was 52 nM; in [8] it was 296 nM.

Take “murine anti-CGRP monoclonal antibody 7E9, Fab fragment”: the KD (mutant/parent) in assay [13] and in assay [16] was 1 in each case.
